This is an account of results in patent US20070116718A1.

For assay [1], the target named is bacteriophage displaying the DO11.10 scTCR/gene VIII fusion protein (vector pKC51) (murine; fd tet bacteriophage). Put plainly: phage panning on biotin antibody on neutrAvidin wells, phage diluted 1:50,000 in irrelevant phage.
Assay [2] concerns the target single-chain MHC class II I-A^d complex with OVA 323-339 peptide, immobilized (chicken; murine) (UniProt P01012). Put plainly: cell-based or functional assay.

Chain of bacteriophage displaying the DO11.10 scTCR/gene VIII fusion protein (vector pKC51) (murine; fd tet bacteriophage) (main, as listed by the source): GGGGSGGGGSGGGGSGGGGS

Turning to “anti-V-β8.2 monoclonal antibody MR5-2 (PharMingen)”, in assay [1], the fold enrichment after a single round of panning stood at 5000 fold.
For “bacteriophage displaying the DO11.10 scTCR/gene VIII fusion protein (vector pKC51)”, the level of IL-2 inhibition, DO11.10 group against gD12 hybridoma group in assay [2] fell in the range of 8 to 10 fold.
On to “hamster anti-mouse αβ TCR antibody H57-597 (ATCC HB-218)”, for which the fold enrichment after a single round of panning in assay [1] was found to be 5000 fold.
